Data as given in PMC3787751.

Substrate: [O-][Cl+]O
Assay: purified protein
Conditions: 25 °C, pH 7.0

B1: NdCld (Nitrospira defluvii) (protein)
chain: ADREKLLTESGVYGTFATFQMDHDWWDLPGESRVISVAEVKGLVEQWSGKILVESYLLRGLSDHADLMFRVHARTLSDTQQFLSAFMGTRLGRHLTSGGLLHGVSKKPTYVAGFPESMKTELQVNGESGSRPYAIVIPIKKDAEWWALDQEARTALMQEHTQAALPYLKTVKRKLYHSTGLDDVDFITYFETERLEDFHNLVRALQQVKEFRHNRRFGHPTLLGTMSPLDEILEKFAQ
For B1, the Km was 58 ± 9 µM and the kcat was 35 ± 5 s⁻¹.

B2: NwCld (Nitrobacter winogradskyi Nb-255) (protein)
chain: MTFTVFTGGDSGAWSILSVAPVIGESLMAASHLAIAPSLSLGDTSATTPWQLRGVASHARYVERAEKIALTSVQAGLGRNEATRAALIPIRKSAAWWEMTQDERRAIFEDKSHHIAASLKYLPAIARQLYHCRDIGEPFDFLTWFEYAPEHATMFEDLVGVLRATEEWTYVEREVDIRLARAI
B2 was tested, and the Km was 90 ± 12 µM and the kcat was 190 ± 14 s⁻¹.
